Reference: article PMC3507442

Molecular target: vimentin (Rat2) (UniProt P31000)
Assay: co-immunoprecipitation with Flag-Beclin 1
Conditions: reference: wild-type Flag-Beclin 1; sites S234,S295

Beclin 1 (from UniProt Q14457) S234A/S295A (AA)
binding against the reference: weaker
